# How the values were obtained:
# [1] = system: HCT116; experiment: cells; format: cell-based, human; settings: 96 h
# Description: Cells were plated in 96 well black walled-clear bottom plates (Griener), DLD-1 WT cells at 2500 cells per well, FaDu, and HeLa cells at 5000 cells per well, and HCT116 at 3000 cells per well, in growth media containing 10% FBS. Cells were allowed to adhere at room temperature for 60 minutes before returning to a 37 C, 5% CO2 incubator. After 24 hours, media was removed and replaced with fresh growth media containing various drug concentrations. Each drug concentration was added in triplicate. Non-drug treated controls contained growth media only. Cells were returned to the incubator. Ninety-six hours after addition of drug, cells were fixed with 4% paraformaldehyde for 20 minutes and stained with Hoechst at 1 ug/mL. The plates were imaged on a Cytation 5 auto imager (BioTek) and cells were counted using CellProfiler (http://cellprofiler.org). The percent cell growth delay was calculated and data plotted using GraphPad Prism
# [2] = Glutathione cleavage study; format: in vitro ADME; settings: Tris buffer with 10 mM glutathione, Glutathione Challenge (10 mM), 100 μM conjugate, Tris pH 7.5, 37° C.
# Description: A 20 mM stock of conjugate was prepared in 100% DMSO. The stocks were subsequently diluted in 100 mM Tris, pH 7.5, to yield an intermediate dilution of 500 μM followed by an additional dilution of 1:5 in 100 mM Tris, pH 7.5 to give a final concentration of 100 μM of conjugate. 100 mM glutathione was prepared immediately prior to use in H2O and diluted 1:10 in challenge samples for a final glutathione challenge concentration of 10 mM. Samples were mixed by inversion and incubated at 37° C. for up to 24 hrs. […]
# (§1) Samples were thawed and extracted as follows: 8 μL of 25% phosphoric acid followed by 117 μL of 100% acetonitrile/0.1% TFA were added to each sample, mixed and centrifuged at 13000×G for 10 minutes. The supernatant was pipetted into 0.2 mL HPLC vials and placed on a Perkin Elmer Flexar HPLC autosampler. The following table summarizes HPLC conditions:
# Data was analyzed by calculating the percentage reduction of compound (area of retention time peak of […] conjugate/area of retention time peak of conjugate at time 0)×100.
# [3] = Plasma stability studies; format: in vitro ADME; settings: rat plasma, 100 μM conjugate, 37° C.
# Description: A 20 mM stock of conjugate was prepared in 100% DMSO. The stocks were subsequently diluted in 100 mM Tris, pH 7.5 to yield an intermediate dilution of 500 μM and then diluted 1:5 directly into rat plasma to yield a final concentration of 100 μM of conjugate. Samples were mixed by inversion and incubated at 37° C. for up to 24 h. 50 μL samples were aliquoted into siliconized microfuge tubes at time 0, 4, and 24 h and immediately frozen at −80° C.
# as §1, with “100% Acetonitrile/0.1%” for “100% acetonitrile/0.1%”, “TFA was” for “TFA were”
# Data was analyzed by calculating the percentage reduction of compound (area of retention time peak of incubated conjugate/area of retention time peak of conjugate at time 0)×100.
SMILES,IC50 [1] [nM],"remaining at 4 h, 100 µM [2] [%]","remaining at 24 h, 100 µM [2] [%]","remaining at 4 h, 100 µM [3] [%]","remaining at 24 h, 100 µM [3] [%]"
CC[C@@]1(O)C(=O)OCc2c1cc1n(c2=O)Cc2c-1nc1cc(F)c(C)c3c1c2[C@@H](NC(=O)O[C@H]1Cc2ccccc2C[C@@H]1SSC[C@H](NC(=O)[C@H](Cc1c[nH]c2ccccc12)NC(=O)[C@H](CC(C)C)NC(=O)[C@H](CC(C)C)NC(=O)[C@H](CC(=O)O)NC(=O)[C@H](CC(C)C)NC(=O)[C@H](CC(C)C)NC(=O)[C@H](CC(C)C)NC(=O)[C@@H](NC(=O)[C@H](CC(=O)O)NC(=O)[C@@H](NC(=O)[C@@H]1CCCN1C(=O)[C@H](Cc1ccccc1)NC(=O)[C@H](CC(C)C)NC(=O)[C@H](CC(C)C)NC(=O)[C@H](CC(=O)O)NC(=O)[C@H](CC(C)C)NC(=O)[C@H](Cc1ccc(O)cc1)NC(=O)[C@H](C)NC(=O)[C@H](CCCNC(=N)N)NC(=O)[C@H](Cc1c[nH]c2ccccc12)NC(=O)[C@@H]1CCCN1C(=O)[C@H](CC(N)=O)NC(=O)[C@H](CCC(N)=O)NC(=O)[C@H](CC(=O)O)NC(=O)[C@H](CC(=O)O)NC(=O)[C@H](C)N)[C@@H](C)O)[C@@H](C)O)C(=O)NCC(=O)O)CC3 [Compound 18],2.9,60.1,13,104,93
CC[C@@]1(O)C(=O)OCc2c1cc1n(c2=O)Cc2c-1nc1cc(F)c(C)c3c1c2[C@@H](NC(=O)O[C@H]1CCc2ccccc2[C@@H]1SSC[C@H](NC(=O)[C@H](Cc1c[nH]c2ccccc12)NC(=O)[C@H](CC(C)C)NC(=O)[C@H](CC(C)C)NC(=O)[C@H](CC(=O)O)NC(=O)[C@H](CC(C)C)NC(=O)[C@H](CC(C)C)NC(=O)[C@H](CC(C)C)NC(=O)[C@@H](NC(=O)[C@H](CC(=O)O)NC(=O)[C@@H](NC(=O)[C@@H]1CCCN1C(=O)[C@H](Cc1ccccc1)NC(=O)[C@H](CC(C)C)NC(=O)[C@H](CC(C)C)NC(=O)[C@H](CC(=O)O)NC(=O)[C@H](CC(C)C)NC(=O)[C@H](Cc1ccc(O)cc1)NC(=O)[C@H](C)NC(=O)[C@H](CCCNC(=N)N)NC(=O)[C@H](Cc1c[nH]c2ccccc12)NC(=O)[C@@H]1CCCN1C(=O)[C@H](CC(N)=O)NC(=O)[C@H](CCC(N)=O)NC(=O)[C@H](CC(=O)O)NC(=O)[C@H](CC(=O)O)NC(=O)[C@H](C)N)[C@@H](C)O)[C@@H](C)O)C(=O)NCC(=O)O)CC3 [Compound 24],3.4,20.8,4.2,87,87
CC[C@@]1(O)C(=O)OCc2c1cc1n(c2=O)Cc2c-1nc1cc(F)c(C)c3c1c2[C@@H](NC(=O)O[C@@H]1CCC[C@H]1SSC[C@H](NC(=O)[C@H](Cc1c[nH]c2ccccc12)NC(=O)[C@H](CC(C)C)NC(=O)[C@H](CC(C)C)NC(=O)[C@H](CC(=O)O)NC(=O)[C@H](CC(C)C)NC(=O)[C@H](CC(C)C)NC(=O)[C@H](CC(C)C)NC(=O)[C@@H](NC(=O)[C@H](CC(=O)O)NC(=O)[C@@H](NC(=O)[C@@H]1CCCN1C(=O)[C@H](Cc1ccccc1)NC(=O)[C@H](CC(C)C)NC(=O)[C@H](CC(C)C)NC(=O)[C@H](CC(=O)O)NC(=O)[C@H](CC(C)C)NC(=O)[C@H](Cc1ccc(O)cc1)NC(=O)[C@H](C)NC(=O)[C@H](CCCNC(=N)N)NC(=O)[C@H](Cc1c[nH]c2ccccc12)NC(=O)[C@@H]1CCCN1C(=O)[C@H](CC(N)=O)NC(=O)[C@H](CCC(N)=O)NC(=O)[C@H](CC(=O)O)NC(=O)[C@H](CC(=O)O)NC(=O)[C@H](C)N)[C@@H](C)O)[C@@H](C)O)C(=O)NCC(=O)O)CC3 [Compound 14],4.7,14.9,6.5,106,106

# — US12410262B2, “Peptide conjugates of cytotoxins as therapeutics” (Cybrexa 2, Inc., priority 2019, dated 2025)
